Publication PMC4644223
Blank lines part the entries; values can stand above or below the binder they belong to.

Key:
[1] = molecular target: T1, Snf7 labeled with Alexa488 (yeast), P39929; test: TIRF microscopy with counting of molecules by fluorescence intensity; settings: remark: other sources report otherwise
T1 chain: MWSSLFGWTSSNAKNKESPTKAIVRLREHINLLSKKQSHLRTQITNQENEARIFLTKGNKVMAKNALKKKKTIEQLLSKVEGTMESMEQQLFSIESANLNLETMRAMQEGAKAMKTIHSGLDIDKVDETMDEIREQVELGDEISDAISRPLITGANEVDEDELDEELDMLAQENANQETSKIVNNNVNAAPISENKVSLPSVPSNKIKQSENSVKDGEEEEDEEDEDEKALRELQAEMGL

[2] = molecular target: T2, Snf7 (yeast), P39929; test: high-speed atomic force microscopy; settings: remark: other sources report otherwise
T2 chain: T1 chain

stoichiometry N [1]: 50 monomers
B1: Snf7 labeled with Alexa488, P39929 1-240 (natural protein)
chain: T1 chain
modifications: here or on the partner: Alexa488 label (TFP-Alexa-488), site not stated; Alexa488 label (TFP-Alexa-488), site not stated

filament growth rate (subunits.s^−1.μM^−1) [2]: 3
B2: Snf7, P39929 1-240 (natural protein)
chain: T1 chain
